Assay results: patent US20240360208A1 (Hoffmann-La Roche, published 2024)

biological target: T1, human CCL2 (MCP1) - wild type (wt) (human, UniProt P13500 24-99); assay: SPR, C1 chip, anti-human Fc capture, 25 C, pH 7.4, Langmuir 1:1
T1 construct: Made in-house or bought (R&D Systems 279-MC), depending on the assay; can form dimers; also called wt human CCL2; WT human CCL2
Method: The sample and system buffer was PBS-T (10 mM phosphate buffered saline including 0.05% Tween20) pH 7.4. The flow cell was set to 25° C.—and the sample block set to 12° C.—and primed with running buffer twice. The bispecific antibody was captured by injecting a 2 μg/ml solution for 60 see at a flow rate of 10 μl/min. Association was measured by injection of human CCL2 (wt) in various concentrations in solution for 150 see at a flow rate of 30 μl/min starting with 30 nM in 1:10 dilutions. The dissociation phase was monitored for up to 1200 sec and triggered by switching from the sample solution to running buffer. […] Bulk refractive index differences were corrected by subtracting the response obtained from a goat anti human IgG Fc surface. Blank injections are also subtracted (=double referencing). For calculation of kinetic parameters, the Langmuir 1:1 model was used.

binding result | Binder
binds | 1A5//1G9-PGLALA (bispecific antibody, V domains shown, CrossMab, IgG1 with L234A, L235A, P329G, knobs-into-holes; crossed arm 1A5, non-crossed arm 1G9; also called CCL2-0046; P1AA3444) VH 1: QEQLVESGGDLVKPEGSLTLTCTASGFSFSTSYWMCWVRQAPGKGLELIACISSSIGVTYYASWAEGRFTISKTSSTTVTLQMTSLTVADTATYFCARTTDDNWNVGFNLWGPGTLVTVSS VL 1: AYDMTQTPASVEVGVGGTVTIKCQASQSIGNRYLSWYQQKPGQPPKLLIYGTSTLASGVSSRFKGSGSGTQFTLTISGVESADSATYYCQQGATISYLDNAFGGGTEVVVK VH 2: QSLEESGGDLVKPGASLTLTCKASGIDFSLYSYMCWVRQAPGKGLEWIACVDAGASGSTYYASWAKGRFTISKTSSTTVTLQMTSLTAADTATYFCARGILYYTWPYPAGAIDAFDSWGPGTLVTVSS VL 2: AYDMTQTPASVSEPVGGTVTIKCQASESISNYLSWYQQKPGQPPKLLIYKASTLASGVPSRFKGSGSGTEYTVTISGVQSDDAATYYCQQSYSSSNVFNTFGGGTEVVVK
binds | 1A5//1G9-WT IgG1 (bispecific antibody, V domains shown, CrossMab, wild type IgG1 with knobs-into-holes; crossed arm 1A5, non-crossed arm 1G9; also called CCL2-0052; P1AA3446) VH 1: QEQLVESGGDLVKPEGSLTLTCTASGFSFSTSYWMCWVRQAPGKGLELIACISSSIGVTYYASWAEGRFTISKTSSTTVTLQMTSLTVADTATYFCARTTDDNWNVGFNLWGPGTLVTVSS VL 1: AYDMTQTPASVEVGVGGTVTIKCQASQSIGNRYLSWYQQKPGQPPKLLIYGTSTLASGVSSRFKGSGSGTQFTLTISGVESADSATYYCQQGATISYLDNAFGGGTEVVVK VH 2: QSLEESGGDLVKPGASLTLTCKASGIDFSLYSYMCWVRQAPGKGLEWIACVDAGASGSTYYASWAKGRFTISKTSSTTVTLQMTSLTAADTATYFCARGILYYTWPYPAGAIDAFDSWGPGTLVTVSS VL 2: AYDMTQTPASVSEPVGGTVTIKCQASESISNYLSWYQQKPGQPPKLLIYKASTLASGVPSRFKGSGSGTEYTVTISGVQSDDAATYYCQQSYSSSNVFNTFGGGTEVVVK
binds | 11K2//1G9-WT IgG1 (bispecific antibody, V domains shown, CrossMab, wild type IgG1 with knobs-into-holes; crossed arm humanized 11K2, non-crossed arm 1G9; also called CCL2-0049; P1AA3461) VH 1: QVQLVQSGAEVKKPGSSVKVSCKASGLTISDTYMHWVRQAPGQGLEWMGRIDPANGNTKFDPKFQGRVTITADTSTSTAYMELSSLRSEDTAVYYCARGVFGFFDYWGQGTTVTVSS VL 1: DIQMTQSPSSLSASVGDRVTITCKATEDIYNRLAWYQQKPGKAPKLLISGATSLETGVPSRFSGSGSGTDYTLTISSLQPEDFATYYCQQFWSAPYTFGGGTKVEIK VH 2: QSLEESGGDLVKPGASLTLTCKASGIDFSLYSYMCWVRQAPGKGLEWIACVDAGASGSTYYASWAKGRFTISKTSSTTVTLQMTSLTAADTATYFCARGILYYTWPYPAGAIDAFDSWGPGTLVTVSS VL 2: AYDMTQTPASVSEPVGGTVTIKCQASESISNYLSWYQQKPGQPPKLLIYKASTLASGVPSRFKGSGSGTEYTVTISGVQSDDAATYYCQQSYSSSNVFNTFGGGTEVVVK
binds | ABN912//11K2-WT IgG1 (bispecific antibody, V domains shown, CrossMab, wild type IgG1 with knobs-into-holes; crossed arm humanized 11K2, non-crossed arm ABN912; also called CCL2-0047; P1AA3447) VH 1: QVQLVQSGAEVKKPGSSVKVSCKASGLTISDTYMHWVRQAPGQGLEWMGRIDPANGNTKFDPKFQGRVTITADTSTSTAYMELSSLRSEDTAVYYCARGVFGFFDYWGQGTTVTVSS VL 1: DIQMTQSPSSLSASVGDRVTITCKATEDIYNRLAWYQQKPGKAPKLLISGATSLETGVPSRFSGSGSGTDYTLTISSLQPEDFATYYCQQFWSAPYTFGGGTKVEIK VH 2: EVQLVQSGGGLVQPGGSLRLSCAASGFTFSHYWMSWVRQAPGKGLEWLANIEQDGSEKYYVDSVKGRFTISRDNAKNSLYLQMNSLRAEDTAVYFCARDLEGLHGDGYFDLWGRGTLVTVSS VL 2: AIQLTQSPSSLSASVGDRVILTCRASQGVSSALAWYQQKPGKAPKLLIYDASSLESGVPSRFSGSGSGPDFTLTISSLQPEDFATYFCQQFNSYPLTFGGGTKVEIK
binds | 11K2//2F6-PGLALA (bispecific antibody, V domains shown, CrossMab, IgG1 with L234A, L235A, P329G, knobs-into-holes; crossed arm humanized 11K2, non-crossed arm 2F6; also called CCL2-0053; P1AA3450) VH 1: QVQLVQSGAEVKKPGSSVKVSCKASGLTISDTYMHWVRQAPGQGLEWMGRIDPANGNTKFDPKFQGRVTITADTSTSTAYMELSSLRSEDTAVYYCARGVFGFFDYWGQGTTVTVSS VL 1: DIQMTQSPSSLSASVGDRVTITCKATEDIYNRLAWYQQKPGKAPKLLISGATSLETGVPSRFSGSGSGTDYTLTISSLQPEDFATYYCQQFWSAPYTFGGGTKVEIK VH 2: QSLEESGGGLVQPEGSLTLTCTASGFSFNNNYYMCWVRQAPGKGLEWIGCISTDDSNTHYASWAQGRFTISKASSTALTLQVAGLTVADMATYFCARDAHFTSYGYGFDLWGPGTLVTVSS VL 2: DIVMTQTPASVSAAVGGTVSINCRASEDIENLVAWYQQKPGQPPKLLIYQASKLASGVPSRFKGSGSGAEFTLTIGDLESADAATYYCQGDYGSGWIMYSFGGGTDLVVK
